Measured values published in patent US7541450B2, “Ligand-dependent protein splicing” (President and Fellows of Harvard College, priority 2004, dated 2009).
Entries after “also recorded” stand apart in the source; their conditions may differ.

Tested on: aminoglycoside phosphorylase (KanR)
Assay type: cell-based, S. cerevisiae

B1: intein(N)-ER-intein(C): starting RecA intein with the estrogen receptor ligand binding domain in place of the endonuclease domain, SEQ ID NO: 1 (protein)
chain: CLAEGTRIFDPVTGTTHRIEDVVDGRKPIHVVAAAKDGTLHARPVVSWFDQGTRDVIGLRIAGGAIVWATPDHKVLTEYGWRAAGELRKGDRVAGPGGSGNSLALSLTADQMVSALLDAEPPILYSEYDPTRPFSEASMMGLLTNLADRELVHMINWAKRVPGFVDLTLHDQVHLLECAWLEILMIGLVWRSMEHPGKLLFAPNLLLDRNQGKCVEGMVEIFDMLLATSSRFRMMNLQGEEFVCLKSIILLNSGVYTFLSSTLKSLEEKDHIHRVLDKITDTLIHLMAKAGLTLQQQHQRLAQLLLILSHIRHMSNKRMEHLYSMKCKNVVPLYDLLLEMLDAHRLHAGGSGASRVQAFADALDDKFLHDMLAEELRYSVIREVLPTRRARTFDLEVEELHTLVAEGVVVHN
modifications: M. tuberculosis RecA intein with the estrogen ligand binding domain inserted in place of the RecA endonuclease domain with six amino acid linkers in between.
geneticin resistance (growth) in the KanR context: confers no geneticin resistance in the presence or absence of 4-HT; also recorded: unable to grown; also recorded: fails to confer geneticin resistance
